Read-outs that look alike come from different tables or passages of the source.
Key:
[1] = target: T1, human CD137 on the transgenic NF-kB Jurkat reporter cell line (human, UniProt Q07011 24-255); assay: cell-based or functional assay
human PDL1 [2] = target: T2, human PDL1 (human, UniProt Q9NZQ7 19-238, limits assumed); assay: cell-based or functional assay
[3] = target: T1, human CD137 on the transgenic NF-kB …; assay: cell-based or functional assay; remark: listed apart in the source
human PDL1 [4] = target: T2, human PDL1; assay: cell-based or functional assay; remark: listed apart in the source
[5] = target: T1, human CD137 on the transgenic NF-kB …; assay: cell-based or functional assay; remark: listed apart in the source
human PDL1 [6] = target: T2, human PDL1; assay: cell-based or functional assay; remark: listed apart in the source
[7] = target: soluble mesothelin (sMSLN) (UniProt Q13421 296-580, limits assumed); assay: cell-based or functional assay
[8] = target: T3, mesothelin (MSLN) on target cells (H226, MeT-5A) (UniProt Q13421 37-598, limits assumed); assay: cell-based or functional assay
[9] = target: T3, mesothelin (MSLN) on target cells …; assay: cell-based or functional assay; remark: listed apart in the source
[10] = target: T3, mesothelin (MSLN) on target cells …; assay: cell-based or functional assay; remark: listed apart in the source
[11] = target: T3, mesothelin (MSLN) on target cells …; assay: cell-based or functional assay; remark: listed apart in the source
[12] = target: T3, mesothelin (MSLN) on target cells …; assay: cell-based or functional assay; remark: listed apart in the source
[13] = target: T3, mesothelin (MSLN) on target cells …; assay: cell-based or functional assay; remark: listed apart in the source
[14] = target: T3, mesothelin (MSLN) on target cells …; assay: cell-based or functional assay; remark: listed apart in the source
[15] = target: T3, mesothelin (MSLN) on target cells …; assay: cell-based or functional assay; remark: listed apart in the source
[16] = target: T3, mesothelin (MSLN) on target cells …; assay: cell-based or functional assay; remark: listed apart in the source
[17] = target: recombinant human mesothelin (human MSLN) (human, UniProt Q13421 296-580, limits assumed); assay: KD ratio told in running text; method not given
[18] = target: T3, mesothelin (MSLN) on target cells …; assay: cell-based or functional assay; remark: listed apart in the source

Row | EC50 (read off the curve); activated CD8+ cells (CD69+) with H226 cells, without sMSLN [14] | EC50 (read off the curve); activated CD8+ cells (CD69+) with H226 cells, with 50 ng/ml sMSLN [15] | EC50 (read off the curve); activated CD8+ cells (CD69+) with H226 cells, with 500 ng/ml sMSLN [16] | Binder | increase of EC50 for killing high MSLN expressing target cells in the presence of 50 ng/ml sMSLN [7] | increase of EC50 for killing high MSLN expressing target cells in the presence of 500 ng/ml sMSLN [7] | EC50 (read off the curve); specific killing of H226 cells (high MSLN) [8] | EC50 (read off the curve); specific killing of MeT-5A cells (low MSLN) [9] | EC50 (read off the curve); specific killing of H226 cells, no sMSLN [11] | EC50 (read off the curve); specific killing of H226 cells, in presence of 50 ng/ml sMSLN [12] | EC50 (read off the curve); specific killing of H226 cells, in presence of 500 ng/ml sMSLN [13] | other results
1 |  |  |  | PRO1124 (38-02-A04 sc06 Full scDb-i/33-03-G02 sc01 scDb-o) (bispecific antibody) DIQMTQSPSSLSASVGDRVTITCQASQSINDYLAWYQQKPGKAPKLLIYKASTLASGVPSRFSGSGSGTDFTLTISSLQPEDFATYYCQQGYIITDIDNVFGTGTKVTVLGGGGGSQVQLQESGPGLVKPSETLSLTCKASGFSFSNSYWICWVRQPPGKGLEWIGCTFVGSSDSTYYANWAKGRVTISKDSSKNQVSLKLSSVTAADTAVYFCARHPSDAVYGYANNLWGQGTLVTVSSGGGGSGGGGSGGGGSGGGGSLQMTQSPSSLSASVGDRVTITCQASQSINNVLAWYQQKPGKPPKLLIYRASTLASGVPSRFSGSGSGTDFTLTISSLQPEDFATYYCQSSYGNYGDFGTGTKVTVLGGGGGSQVQLQESGPGLVKPSETLSLTCKVSGFSFSSGYDMCWIRQPPGKGLEWIGCVVAGSVDITYYASWAKGRVTISVDSSKNQFSLKLSSVTAADTAVYYCARKDAYSDAFNLWGQGTLVTVSS |  |  |  |  |  |  |  | EC50 (read off the curve); NF-kB reporter gene assay, rising part of the curve [1]: ~100 pM; IC50 (read off the curve); NFAT reporter gene assay, blocked ligand PD-1 (human PDL1 [2]): ~1000 pM
2 |  |  |  | PRO885 (38-02-A04 sc01 scDb-i/33-03-G02 sc01 scDb-o) (bispecific antibody) DIQMTQSPSSLSASVGDRVTITCQASQSINDYLAWYQQKPGKAPKLLIYKASTLASGVPSRFSGSGSGTDFTLTISSLQPEDFATYYCQQGYIITDIDNVFGTGTKVTVLGGGGGSQVQLQESGPGLVKPSETLSLTCKVSGFSFSNSYWICWIRQPPGKGLEWIGCTFVGSSDSTYYANWAKGRVTISVDSSKNQFSLKLSSVTAADTAVYYCARHPSDAVYGYANNLWGQGTLVTVSSGGGGSGGGGSGGGGSGGGGSIQMTQSPSSLSASVGDRVTITCQASQSINNVLAWYQQKPGKAPKLLIYRASTLASGVPSRFSGSGSGTDFTLTISSLQPEDFATYYCQSSYGNYGDFGTGTKVTVLGGGGGSQVQLQESGPGLVKPSETLSLTCKVSGFSFSSGYDMCWIRQPPGKGLEWIGCVVAGSVDITYYASWAKGRVTISVDSSKNQFSLKLSSVTAADTAVYYCARKDAYSDAFNLWGQGTLVTVSS |  |  |  |  |  |  |  | EC50 (read off the curve); NF-kB reporter gene assay, rising part of the curve [3]: ~300 pM; IC50 (read off the curve); NFAT reporter gene assay, blocked ligand PD-1 (human PDL1 [4]): ~2000 pM
3 |  |  |  | PRO1480 (38-27-A11 sc02 scDb-i/37-20-B03 sc09.1 scDb-o/19-01-H04 sc03 scFv) (other) DIQMTQSPASLSASVGDRVTITCQASQSIGTYLAWYQQKPGKPPKLLIYRAFILASGVPSRFSGSGSGTDFTLTISSLQPEDFATYYCQSNFYSDSTTIGPNAFGTGTKVTVLGGGGGSEVQLVESGGGLVQPGGSLRLSCAASGFSFSANYYPCWVRQAPGKGLEWIGCIYGGSSDITYDANWTKGRFTISRDNSKNTVYLQMNSLRAEDTAVYYCARSAWYSGWGGDLWGQGTLVTVSSGGGGSGGGGSGGGGSGGGGSIQMTQSPSSLSASVGDRVTITCQASQSISNRLAWYQQKPGKAPKLLIYSASTLASGVPSRFSGSGSGTDFTLTISSLQPEDFATYYCQSTYYGNDGNAFGTGTKVTVLGGGGGSEVQLVESGGGLVQPGGSLRLSCAASGFSFNSDYWIYWVRQAPGKGLEWIASIYGGSSGNTQYASWAQGRFTISRDNSKNTVYLQMNSLRAEDTAVYFCARGYVDYGGATDLWGQGTLVTVSSGGGGSGGGGSIQMTQSPSSLSASVGDRVTITCQSSESVYSNNQLSWYQQKPGQPPKLLIYDASDLASGVPSRFSGSGSGTDFTLTISSLQPEDFATYYCAGGFSSSSDTAFGGGTKLTVLGGGGGSGGGGSGGGGSGGGGSEVQLVESGGGLVQPGGSLRLSCAASGFSLSSNAMGWVRQAPGKGLEYIGIISVGGFTYYASWAKGRFTISRDNSKNTVYLQMNSLRAEDTATYFCARDRHGGDSSGAFYLWGQGTLVTVSS |  |  |  |  |  |  |  | EC50 (read off the curve); NF-kB reporter gene assay [5]: ~70 pM; IC50 (read off the curve); NFAT reporter gene assay, blocked ligand PD-1 (human PDL1 [6]): ~500 pM
4 | ~20 pM | ~200 pM | ~1000 pM | PRO1872 (MSLN x CD3 x hSA) (54-22-H03-sc01 scFv/28-21-D09-sc04 scDb-i/23-13-A01-sc02 diS scDb-o) (other, also called MSLNlowKDxCD3xhSA) DVVMTQSPSSLSASVGDRVTITCQASQIISSRSAWYQQKPGQPPKLLIYQASKLASGVPSRFSGSGSGTDFTLTISSLQPEDFATYYCQCTYIDSNFGAFGCGTKLTVLGGGGGSEVQLVESGGGLVQPGGSLRLSCAASGFSLSSYDMSWVRQAPGKGLAWIGASYASGPTYYASWAKGRFTISRDNSKNTVYLQMNSLRAEDTATYFCARGGWTGTSHSNIWGQGTLVTVSSGGGGSGGGGSGGGGSGGGGSDIQMTQSPSSLSASVGDRVTITCQSSQSVFSNNYLAWFQQKPGQSPKRLIYSASTLASGVPSRFSGSGSGTDFTLTISSLQPEDFATYYCLGSYACSSADCYVFGTGTKVTVLGGGGGSEVQLVESGGGLVQPGGSLRLSCAASGFSFSSSYWICWVRQAPGKCLEWVGCVFTGDGTTYYASWAKGRFTISRDNSKNTVYLQMNSLRAEDTATYFCARPVSVYYYGMDLWGQGTLVTVSSGGGGSGGGGSDIQMTQSPSSLSASVGDRVTITCQASESIGNYLAWYQQKPGKAPKLLIYSASTLASGVPSRFSGSGSGTDFTLTISSLQPEDFATYYCQSTDYGDSYIFGTGTKVTVLGGGGGSGGGGSGGGGSGGGGSEVQLVESGGGLVQPGGSLRLSCAASGISVSNDYYMCWVRQAPGKGLEWIGCISTYIGNTHYASWAKGRFTISRDNSKNTVYLQMNSLRAEDTAVYYCAKNAGYPGYRYAIDLWGQGTLVTVSS | ~8 fold | > 75 fold | ~5 pM | ~10 pM | ~50 pM | ~600 pM | ~5000 pM | EC50 (read off the curve); activated CD8+ cells (CD69+) with MeT-5A cells (low MSLN) [10]: ~10 pM; fold better binding affinity (KD) than the MSLN-BDs of PRO2000, PRO2562, PRO2566 and PRO2567 [17]: > 5 fold
5 | ~2 pM | ~8 pM | ~40 pM | PRO2000 (biMSLNlow affinity x CD3 x hSA) (other) chain 1: DIQMTQSPSSLSASVGDRVTITCQASQNIYSNLAWYQQKPGKAPKLLIYDASDLASGVPSRFSGSGSGTDFTLTISSLQPEDFATYYCQQVRSSSDIDNPFGTGTKVTVLGGGGGSGGGGSGGGGSGGGGSQVQLVESGGGLVQPGGSLRLSCAASGFSLSSYAMGWVRQAPGKGLEWIGYISTINNTYYASWAKGRFTISRDNSKNTVYLQMNSLRAEDTAVYYCAREIRSGWVDYGFSIWGQGTLVTVSSGGGGSGGGGSEVQLVESGGGLVQPGGSLRLSCAASGFSLSSYDMSWVRQAPGKGLAWIGASYASGPTYYASWAKGRFTISRDNSKNTVYLQMNSLRAEDTATYFCARGGWTGTSHSNIWGQGTLVTVSSGGGSGGGSEVQLVESGGGLVQPGGSLRLSCAASGFSFSSSYWICWVRQAPGKCLEWVGCVFTGDGTTYYASWAKGRFTISRDNSKNTVYLQMNSLRAEDTATYFCARPVSVYYYGMDLWGQGTLVTVSS chain 2: DIQMTQSPSSLSASVGDRVTITCQASQNIYSNLAWYQQKPGKAPKLLIYDASDLASGVPSRFSGSGSGTDFTLTISSLQPEDFATYYCQQVRSSSDIDNPFGTGTKVTVLGGGGGSGGGGSGGGGSGGGGSQVQLVESGGGLVQPGGSLRLSCAASGFSLSSYAMGWVRQAPGKGLEWIGYISTINNTYYASWAKGRFTISRDNSKNTVYLQMNSLRAEDTAVYYCAREIRSGWVDYGFSIWGQGTLVTVSSGGGGSGGGGSDVVMTQSPSSLSASVGDRVTITCQASQIISSRSAWYQQKPGQPPKLLIYQASKLASGVPSRFSGSGSGTDFTLTISSLQPEDFATYYCQCTYIDSNFGAFGCGTKLTVLGGGSGGSDIQMTQSPSSLSASVGDRVTITCQSSQSVFSNNYLAWFQQKPGQSPKRLIYSASTLASGVPSRFSGSGSGTDFTLTISSLQPEDFATYYCLGSYACSSADCYVFGTGTKVTVLG | ≤ 6 fold | ≤ 40 fold | ~0.07 pM | ~100 pM | ~10 pM | ~30 pM | ~200 pM | T-cell driven cytotoxicity assay: EC50 for killing high MSLN expressing target cells against EC50 for killing MeT-5A cells [18]: ≥ 25 fold; specific killing of high MSLN expressing H226 cells by PBMCs in the presence of human serum albumin; killing potency against that of PRO1872 [18]: 75 fold; decrease of potency of T-cell driven target cell killing in the presence of 500 ng/ml soluble MSLN [7]: 17 fold
